US20220143204A1
Substitutions are numbered along the chain they refer to. Blank lines part the entries; values can stand above or below the binder they belong to.

Experiments:
[1] = target: human IGF2R on cells (human) (UniProt P11717); assay: cell-based or functional assay
rat IGF2R on cells (rat) = assay: cell-based or functional assay
[2] = target: recombinant human extracellular domain of IGF2R (human) (UniProt P11717); assay: titration ELISA of the Alexa Fluor 647 conjugate on recombinant hIGF2R-ECD, one-site specific binding fit
[3] = target: recombinant human extracellular domain of IGF2R (human) (UniProt P11717); assay: titration ELISA on recombinant hIGF2R-ECD, direct read-out of the Alexa Fluor 647 conjugate (fluorescence intensity 700 nm), one-site specific binding fit (Examples 4.1, 6.1)
[4] = target: recombinant human extracellular domain of IGF2R (human) (UniProt P11717); assay: binding assay on hIGF2R-ECD coated plates, detection with anti-VHH antibody
[5] = target: recombinant human extracellular domain of IGF2R (human) (UniProt P11717); assay: binding assay on plates coated with hIGF2R-ECD, three-fold VHH dilutions, bound VHH detected with anti-VHH antibody (Example 4.1); y axis OD415
[6] = target: recombinant human extracellular domain of IGF2R (human) (UniProt P11717); assay: titration ELISA on hIGF2R-ECD, direct read out at 647 nm, one-site specific binding fit
[7] = target: recombinant human extracellular domain of IGF2R (human) (UniProt P11717); assay: competition ELISA on human IGF2R ectodomain: 250 nM unlabelled 13E8 against 10 nM labelled 13F11 (competitor: 13F11-A647)

- endocytic rate constant, ke [1]: 1.5 min⁻¹
- endocytic rate constant, ke (rat IGF2R on cells (rat)): 0.7 min⁻¹
B1: 13E8-13F11 conjugated to IRD800CW (VHH, not shown: small tags and cut ends)
chain: EVQLVESGGGLVQAGGSLRLSCAASRSISPMGWYRQAPGKQRELVAIMPSSGPPIYADSVQGRFTISRDNAKNTVYLQMNSLKPEDTAVYYCNVGGGYWGQGTQVTVSSGGGGSGGGGSGGGGSEVQLVESGGRLVQPGDSLRLSCAASGRTFSDNAMGWFRQAPGKERRFVAGISWAGGSTYYSDSVKGRFTISRDNAKNTVYLQMNSLKPEDTAVYYCAAGLRAWVQRMPKDYNYWGQGTQVTVSS
modifications: IRD800CW by maleimide chemistry on the C-terminal free cysteine

- Kd [2]: 2.5 nM
- Bmax [3]: 94.7
B2: 13E8-13F11 conjugated to Alexa Fluor 647 (VHH, not shown: small tags and cut ends)
chain: B1 chain
modifications: Alexa Fluor 647 by maleimide chemistry on the C-terminal free cysteine

- Kd [4]: 0.23 nM
- EC50 (read off the curve) [5]: 0.4 nM
B3: 13F11 (VHH)
VHH: EVQLVESGGRLVQPGDSLRLSCAASGRTFSDNAMGWFRQAPGKERRFVAGISWAGGSTYYSDSVKGRFTISRDNAKNTVYLQMNSLKPEDTAVYYCAAGLRAWVQRMPKDYNYWGQGTQVTVSS

- Kd [6]: 1 nM
- Bmax [3]: 20.1
B4: 13F11 conjugated to Alexa Fluor 647 (VHH, not shown: small tags and cut ends)
VHH: B3 VHH
modifications: Alexa Fluor 647 by maleimide chemistry on the C-terminal free cysteine

- Kd [2]: 2.5 nM
- Bmax [3]: 79.2
B5: 13F11-13E8 conjugated to Alexa Fluor 647 (VHH, not shown: small tags and cut ends)
chain: EVQLVESGGRLVQPGDSLRLSCAASGRTFSDNAMGWFRQAPGKERRFVAGISWAGGSTYYSDSVKGRFTISRDNAKNTVYLQMNSLKPEDTAVYYCAAGLRAWVQRMPKDYNYWGQGTQVTVSSGGGGSGGGGSGGGGSEVQLVESGGGLVQAGGSLRLSCAASRSISPMGWYRQAPGKQRELVAIMPSSGPPIYADSVQGRFTISRDNAKNTVYLQMNSLKPEDTAVYYCNVGGGYWGQGTQVTVSS
modifications: Alexa Fluor 647 by maleimide chemistry on the C-terminal free cysteine

- decrease of the fluorescence intensity of labelled 13F11 [7]: < 5%
B6: 13E8 (VHH)
VHH: EVQLVESGGGLVQAGGSLRLSCAASRSISPMGWYRQAPGKQRELVAIMPSSGPPIYADSVQGRFTISRDNAKNTVYLQMNSLKPEDTAVYYCNVGGGYWGQGTQVTVSS

- Kd [2]: 3.1 nM
- Bmax [3]: 63.4
B7: 13F11-13F11 conjugated to Alexa Fluor 647 (VHH, part only; not given: C-terminal cysteine and His tag, not shown: small tags and cut ends)
chain, part: EVQLVESGGRLVQPGDSLRLSCAASGRTFSDNAMGWFRQAPGKERRFVAGISWAGGSTYYSDSVKGRFTISRDNAKNTVYLQMNSLKPEDTAVYYCAAGLRAWVQRMPKDYNYWGQGTQVTVSSGGGGSGGGGSGGGGSEVQLVESGGRLVQPGDSLRLSCAASGRTFSDNAMGWFRQAPGKERRFVAGISWAGGSTYYSDSVKGRFTISRDNAKNTVYLQMNSLKPEDTAVYYCAAGLRAWVQRMPKDYNYWGQGTQVTVSS
modifications: Alexa Fluor 647 by maleimide chemistry on the C-terminal free cysteine

- EC50 (read off the curve) [5]: 3 nM
B8: 13C11 (VHH)
VHH: EVQLVESGGGLVQAGGSLRLSCAASGLTFSSYTMAWYRQAPGKEREVVAAISSGDSIYHEGSVQGRFIISRDNAKNTVYLQMNSLKAEDTAVYYCRANGPGTYWGQGTQVTVSS

- EC50 (read off the curve) [5]: 2 nM
B9: 13G10 (VHH)
VHH: B8 VHH with G61D
